The source of these data is US20250352667A1.

Substitutions are numbered along the chain they refer to. In names and notes the source's numbering stands.

Assay [1] has as its target KEAP1 (wild-type full-length), His-tagged (human) (UniProt Q14145). In words: AlphaScreen; 76.8 nM FLAG-NRF2, 150 nM His-KEAP1; Rep 1; control for I28V.
For assay [2] the target is unchanged. In words: AlphaScreen; 614.4 nM FLAG-NRF2, 150 nM His-KEAP1; Rep 3; control for I86V. A general note: In Alpha technology, singlet oxygen from a donor bead excites a nearby acceptor bead.
For assay [3] the target is unchanged. In words: AlphaScreen; 38.4 nM FLAG-NRF2, 150 nM His-KEAP1; wild type set to 100%.
Assay [4] has the same target. Kind of assay: AlphaScreen; FLAG-NRF2 wt isoform 1 307.2 nM, His-KEAP1 150 nM; Rep 2; positive control for Q75R.
The target is the same in assay [5]. Kind of assay: AlphaScreen; 1228.8 nM FLAG-NRF2, 150 nM His-KEAP1; Rep 2; control for I86V.
Assay [6] shares this target. In words: AlphaScreen; 9.6 nM FLAG-NRF2, 150 nM His-KEAP1; wild type set to 100%.
For assay [7] the target is unchanged. In words: AlphaScreen; FLAG-NRF2 wt isoform 1 9.6 nM, His-KEAP1 150 nM; Rep 2; positive control for I86V.
Assay [8] has the same target. Kind of assay: AlphaScreen; 9.6 nM FLAG-NRF2, 150 nM His-KEAP1 (same value as in Table 26).
For assay [9] the target is unchanged. Kind of assay: AlphaScreen; 9.6 nM FLAG-NRF2, 150 nM His-KEAP1; Rep 1; control for I28V.
The target is the same in assay [10]. In words: AlphaScreen; 153.6 nM FLAG-NRF2, 150 nM His-KEAP1; signal against NRF2 only; control for I86V.
The target is the same in assay [11]. Kind of assay: AlphaScreen; FLAG-NRF2 wt isoform 1 1228.8 nM, His-KEAP1 150 nM; Rep 2; positive control for Q75R.
Assay [12] shares this target. In words: AlphaScreen; 1228.8 nM FLAG-NRF2, 150 nM His-KEAP1; Rep 2; control for I28V.
Assay [13] shares this target. In words: AlphaScreen; 19.2 nM FLAG-NRF2, 150 nM His-KEAP1; wild type set to 100%.
Assay [14] has the same target. In words: AlphaScreen; FLAG-NRF2 I86V 38.4 nM, His-KEAP1 150 nM; Rep 1.
For assay [15] the target is unchanged. In words: AlphaScreen; FLAG-NRF2 I86V 19.2 nM, His-KEAP1 150 nM; Rep 3.
For assay [16] the target is unchanged. Kind of assay: AlphaScreen; NRF2 I86V 1228.8 nM, KEAP1 150 nM; signal against NRF2-only control.
Assay [17] has the same target. In words: AlphaScreen; NRF2 I86V 4.8 nM, KEAP1 150 nM; signal against NRF2-only control.
For assay [18] the target is unchanged. In words: AlphaScreen; FLAG-NRF2 I86V 19.2 nM, His-KEAP1 150 nM; Rep 2.
Assay [19] shares this target. In words: AlphaScreen; 1228.8 nM FLAG-NRF2, 150 nM His-KEAP1; signal against NRF2 only.
For assay [20] the target is unchanged. Kind of assay: AlphaScreen; 9.6 nM FLAG-NRF2, 150 nM His-KEAP1; Rep 1.
Assay [21] has the same target. In words: AlphaScreen; 307.2 nM FLAG-NRF2, 150 nM His-KEAP1; Rep 2.
Assay [22] shares this target. Kind of assay: AlphaScreen; 9.6 nM FLAG-NRF2, 150 nM His-KEAP1; signal against NRF2 only.
For assay [23] the target is unchanged. Kind of assay: AlphaScreen; FLAG-NRF2 Q75R 76.8 nM, His-KEAP1 150 nM; Rep 2.
Assay [24] has the same target. In words: AlphaScreen; NRF2 Q75R 307.2 nM, KEAP1 150 nM; signal against NRF2-only control.
Assay [25] has the same target. In words: AlphaScreen; FLAG-NRF2 Q75R 153.6 nM, His-KEAP1 150 nM; Rep 2.
The target is the same in assay [26]. In words: AlphaScreen; FLAG-NRF2 Q75R 614.4 nM, His-KEAP1 150 nM; Rep 2.
The target is the same in assay [27]. Kind of assay: AlphaScreen; FLAG-NRF2 Q75R 1228.8 nM, His-KEAP1 150 nM; Rep 2.

Sequence of KEAP1 (wild-type full-length), His-tagged (human) (Q14145 2-624 limits assumed): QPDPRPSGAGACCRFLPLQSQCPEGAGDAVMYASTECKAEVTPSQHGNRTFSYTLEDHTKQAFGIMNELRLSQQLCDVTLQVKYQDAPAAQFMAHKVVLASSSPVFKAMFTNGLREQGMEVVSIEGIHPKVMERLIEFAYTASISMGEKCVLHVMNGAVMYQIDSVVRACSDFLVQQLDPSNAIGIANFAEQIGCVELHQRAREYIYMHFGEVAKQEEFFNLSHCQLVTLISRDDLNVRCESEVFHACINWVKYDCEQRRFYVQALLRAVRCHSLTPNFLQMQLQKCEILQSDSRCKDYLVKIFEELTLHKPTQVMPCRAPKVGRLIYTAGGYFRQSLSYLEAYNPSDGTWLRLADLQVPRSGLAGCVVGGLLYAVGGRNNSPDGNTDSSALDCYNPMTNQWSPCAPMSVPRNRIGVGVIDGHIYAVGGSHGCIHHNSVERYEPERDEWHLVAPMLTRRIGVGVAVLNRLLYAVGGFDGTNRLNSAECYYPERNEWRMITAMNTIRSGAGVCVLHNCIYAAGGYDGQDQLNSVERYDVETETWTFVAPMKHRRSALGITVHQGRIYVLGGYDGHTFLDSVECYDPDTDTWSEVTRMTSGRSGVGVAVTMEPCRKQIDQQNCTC

B1: NRF2 isoform 1 (wild-type full-length), FLAG-tagged (protein)
chain: MMDLELPPPGLPSQQDMDLIDILWRQDIDLGVSREVFDFSQRRKEYELEKQKKLEKERQEQLQKEQEKAFFAQLQLDEETGEFLPIQPAQHIQSETSGSANYSQVAHIPKSDALYFDDCMQLLAQTFPFVDDNEVSSATFQSLVPDIPGHIESPVFIATNQAQSPETSVAQVAPVDLDGMQQDIEQVWEELLSIPELQCLNIENDKLVETTMVPSPEAKLTEVDNYHFYSSIPSMEKEVGNCSPHFLNAFEDSFSSILSTEDPNQLTVNSLNSDATVNTDFGDEFYSAFIAEPSISNSMPSPATLSHSLSELLNGPIDVSDLSLCKAFNQNHPESTAEFNDSDSGISLNTSPSVASPEHSVESSSYGDTLLGLSDSEVEELDSAPGSVKQNGPKTPVHSSGDMVQPLSPSQGQSTHVHDAQCENTPEKELPVSPGHRKTPFTKDKHSSRLEAHLTRDELRAKALHIPFPVEKIINLPVVDFNEMMSKEQFNEAQLALIRDIRRRGKNKVAAQNCRKRKLENIVELEQDLDHLKDEKEKLLKEKGENDKSLHLLKKQLSTLYLEVFSMLRDEDGKPYSPSEYSLQQTRDGNVFLVPKSKKPDVKKN
With B1, the A-counts in assay [1] was found to be 2000 A-counts; in assay [2], 2720 A-counts; in assay [5], 2770 A-counts; in assay [9], 1590 A-counts; in assay [12] it was 1520 A-counts. Besides, the Binding Percentage (%) in assay [3], in [6] and in assay [13] was 100% each time. Also, the A-counts (NRF2 plus KEAP1) in [4] came out at 1570 A-counts; in assay [7] it was 2720 A-counts; in [11] it was 1360 A-counts. Further, the S/N in [8] stood at 4.1; in assay [10] it was 2.

B2: NRF2 isoform 1 (I86V full-length), FLAG-tagged (protein)
chain: B1 chain with I86V
As to B2, the results for the A-counts (NRF2 plus KEAP1) in assay [14], in assay [15] and in assay [18] were 3010 A-counts, 2970 A-counts and 3160 A-counts, respectively. In addition, the S/N in assay [16] is 0.9; in [17], 2.9.

B3: NRF2 isoform 1 (I28V full-length), FLAG-tagged (protein)
chain: B1 chain with I28V
B3: the S/N in assay [19] was determined as 0.9; in assay [22] it was 3.4. Further, the A-counts was determined as 1570 A-counts in assay [20] and 1260 A-counts in [21].

B4: NRF2 isoform 1 (Q75R full-length), FLAG-tagged (protein)
chain: B1 chain with Q75R
Consider B4, for which the A-counts (NRF2 plus KEAP1) in assay [23] came to 1150 A-counts; in [25], 991 A-counts; in assay [26], 855 A-counts; in assay [27], 653 A-counts. This molecule also had a S/N in [24] of 1.
